Target: the molecule itself
Assay: cross-linking; chemical cross-linking in TrkA-transfected PC12 cells, with or without LPC; data not shown

B1: tropomyosin-related kinase A (TrkA) (receptor)
chain: not shown
stoichiometry N: 2

Reference: paper PMC3678299 (FEBS Open Bio, 2013)
